Reference: patent US20200339690A1 (JOUNCE THERAPEUTICS, published 2020)

Legend:
[1] = target: T1, human LILRB2 expressed on cells (human, UniProt Q8N423 22-597); test: cell-based or functional assay
human LILRA1 = target: T2, human LILRA1 (human, UniProt O75019 17-489); test: flow cytometry, LILRA1 CHOs
T2 construct: Over-expressed on CHO-s cells; also called hLILRA1
Description: (§1) To test for specificity to hLILRB2 and not towards any of the ten LILR family members, a multiplexed cell-based barcoding approach was used by staining cells with Far Red and/or Violet Cell Trace dyes (Thermo Scientific) according to manufacturer's protocol or left unstained. In brief, cells were washed twice with 1×DPBS and then incubated with diluted dye in 1×DPBS for 20 minutes at 37° C., mixing gently every 5-10 minutes. Dye labeling was quenched by adding equal volume of 100% HI-FBS (Sigma) to the cells. Note that LILRB1, LILRB2, LILRB3, LILRB4, and LILRB5 cell lines are also GFP-positive, while LILRA1, LILRA2, LILRA3, LILRA4, LILRA5, and LILRA6 cell lines are GFP-negative. The cells were then washed twice in 1×DPBS and then all 11 cell lines were combined per well in a 96-well round bottom tissue-culture treated plate. At least 25×10³ cells of each cell-line were plated per well. Cells were then re-suspended in primary antibody (anti-LILRB2 mAbs or control) prepared in FACS buffer (1×DPBS containing 2% HI-FBS (Sigma)+0.05% Sodium Azide). After incubation at 4° C. for 30 minutes, cells were washed twice with 1×DPBS and re-suspended in anti-human IgG-PE (BioLegend) diluted 1:200 in FACS buffer. Following a 30 minute incubation at 4° C., protected from light, cells were washed in 1×DPBS and re-suspended in fix buffer (1.5% paraformaldehyde diluted in 1×DPBS). Samples were analyzed using the Celesta flow cytometer analyzer (BD Biosciences). Geometric mean fluorescence intensity (gMFI) of PE was determined for each antibody across each cell line. Background MFI was detected with isotype control and relative binding of antibodies tested was measured as a fold over isotype.

human LILRA2 = target: T3, human LILRA2 (human, UniProt Q8N149 24-483); test: flow cytometry, LILRA2 CHOs
T3 construct: Over-expressed on CHO-s cells; also called hLILRA2
T3 sequence (Q8N149 24-483 S135L limits assumed): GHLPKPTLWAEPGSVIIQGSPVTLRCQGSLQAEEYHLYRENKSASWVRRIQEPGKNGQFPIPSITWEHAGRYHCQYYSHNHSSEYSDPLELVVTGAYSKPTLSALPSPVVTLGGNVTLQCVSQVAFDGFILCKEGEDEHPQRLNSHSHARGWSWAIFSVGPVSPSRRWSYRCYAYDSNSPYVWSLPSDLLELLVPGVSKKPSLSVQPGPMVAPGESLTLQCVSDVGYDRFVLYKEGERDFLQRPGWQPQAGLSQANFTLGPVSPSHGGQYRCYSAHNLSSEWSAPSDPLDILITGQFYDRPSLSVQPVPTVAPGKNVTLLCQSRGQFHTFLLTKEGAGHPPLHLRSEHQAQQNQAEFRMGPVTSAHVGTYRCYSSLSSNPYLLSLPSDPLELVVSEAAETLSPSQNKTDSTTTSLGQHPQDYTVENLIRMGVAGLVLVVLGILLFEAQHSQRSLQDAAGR
Description: as §1

human LILRA3 = target: T4, human LILRA3 (human, UniProt Q8N6C8 24-439); test: flow cytometry, LILRA3 CHOs
T4 construct: Over-expressed on CHO-s cells; also called hLILRA3
T4 sequence (Q8N6C8 24-439 limits assumed): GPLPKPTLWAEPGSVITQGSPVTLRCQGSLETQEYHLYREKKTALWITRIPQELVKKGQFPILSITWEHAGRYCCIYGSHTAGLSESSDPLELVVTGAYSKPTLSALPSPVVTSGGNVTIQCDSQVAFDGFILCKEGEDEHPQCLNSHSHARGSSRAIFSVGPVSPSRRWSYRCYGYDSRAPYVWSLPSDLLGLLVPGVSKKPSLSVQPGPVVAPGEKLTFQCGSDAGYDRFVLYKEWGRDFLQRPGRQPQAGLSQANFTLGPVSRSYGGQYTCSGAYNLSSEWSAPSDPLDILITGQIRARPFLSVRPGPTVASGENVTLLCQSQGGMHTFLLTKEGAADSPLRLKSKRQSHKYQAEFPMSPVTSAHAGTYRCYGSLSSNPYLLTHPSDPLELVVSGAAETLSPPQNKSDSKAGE
Description: as §1

human LILRA4 = target: T5, human LILRA4 (human, UniProt P59901 24-499); test: flow cytometry, LILRA4 CHOs
T5 construct: Over-expressed on CHO-s cells; also called hLILRA4
T5 sequence (P59901 other isoform, or with tags, fused parts or gaps limits assumed): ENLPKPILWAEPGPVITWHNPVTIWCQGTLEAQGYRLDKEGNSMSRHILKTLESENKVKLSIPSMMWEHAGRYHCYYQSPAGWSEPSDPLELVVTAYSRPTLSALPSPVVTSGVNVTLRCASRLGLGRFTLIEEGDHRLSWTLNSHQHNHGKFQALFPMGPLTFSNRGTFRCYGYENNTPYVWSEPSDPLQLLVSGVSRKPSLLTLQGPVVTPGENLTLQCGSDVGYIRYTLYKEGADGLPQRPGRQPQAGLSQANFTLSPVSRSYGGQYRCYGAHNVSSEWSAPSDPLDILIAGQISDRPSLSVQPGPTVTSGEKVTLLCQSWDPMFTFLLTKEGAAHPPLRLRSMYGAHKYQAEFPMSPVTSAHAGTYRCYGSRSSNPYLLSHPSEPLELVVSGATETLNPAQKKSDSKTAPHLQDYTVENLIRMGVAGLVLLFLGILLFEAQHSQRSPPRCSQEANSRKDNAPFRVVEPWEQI
Description: as §1

human LILRA5 = target: T6, human LILRA5 (human, UniProt A6NI73 42-299); test: flow cytometry, LILRA5 CHOs
T6 construct: Over-expressed on CHO-s cells; also called hLILRA5
T6 sequence (A6NI73 42-299 limits assumed): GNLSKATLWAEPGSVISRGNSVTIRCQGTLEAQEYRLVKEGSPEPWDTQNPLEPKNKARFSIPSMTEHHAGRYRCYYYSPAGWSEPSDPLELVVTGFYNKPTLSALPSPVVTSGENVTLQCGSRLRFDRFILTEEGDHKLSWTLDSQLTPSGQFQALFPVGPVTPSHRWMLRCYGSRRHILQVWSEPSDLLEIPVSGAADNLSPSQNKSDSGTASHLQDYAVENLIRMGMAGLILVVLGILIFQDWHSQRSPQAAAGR
Description: as §1

human LILRA6 = target: T7, human LILRA6 (human, UniProt Q6PI73 24-481); test: flow cytometry, LILRA6 CHOs
T7 construct: Over-expressed on CHO-s cells; also called hLILRA6
T7 sequence (Q6PI73 24-481 limits assumed): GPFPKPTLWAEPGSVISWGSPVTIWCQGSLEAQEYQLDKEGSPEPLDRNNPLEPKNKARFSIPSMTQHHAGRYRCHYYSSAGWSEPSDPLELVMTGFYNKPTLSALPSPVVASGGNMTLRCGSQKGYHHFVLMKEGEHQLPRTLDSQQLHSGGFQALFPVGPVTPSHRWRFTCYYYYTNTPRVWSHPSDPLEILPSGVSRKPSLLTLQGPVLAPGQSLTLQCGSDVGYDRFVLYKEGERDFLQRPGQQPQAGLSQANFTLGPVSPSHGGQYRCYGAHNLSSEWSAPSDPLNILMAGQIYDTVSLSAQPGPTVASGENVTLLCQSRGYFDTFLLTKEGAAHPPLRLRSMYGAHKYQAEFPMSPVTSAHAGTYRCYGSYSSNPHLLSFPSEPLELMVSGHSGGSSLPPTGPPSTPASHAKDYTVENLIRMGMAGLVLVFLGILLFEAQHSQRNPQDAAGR
Description: as §1

human LILRB1 = target: T8, human LILRB1 (human, UniProt Q8NHL6 24-650); test: flow cytometry, LILRB1 CHOs
T8 construct: Over-expressed on CHO-s cells; also called hLILRB1
T8 sequence (Q8NHL6 24-650 limits assumed): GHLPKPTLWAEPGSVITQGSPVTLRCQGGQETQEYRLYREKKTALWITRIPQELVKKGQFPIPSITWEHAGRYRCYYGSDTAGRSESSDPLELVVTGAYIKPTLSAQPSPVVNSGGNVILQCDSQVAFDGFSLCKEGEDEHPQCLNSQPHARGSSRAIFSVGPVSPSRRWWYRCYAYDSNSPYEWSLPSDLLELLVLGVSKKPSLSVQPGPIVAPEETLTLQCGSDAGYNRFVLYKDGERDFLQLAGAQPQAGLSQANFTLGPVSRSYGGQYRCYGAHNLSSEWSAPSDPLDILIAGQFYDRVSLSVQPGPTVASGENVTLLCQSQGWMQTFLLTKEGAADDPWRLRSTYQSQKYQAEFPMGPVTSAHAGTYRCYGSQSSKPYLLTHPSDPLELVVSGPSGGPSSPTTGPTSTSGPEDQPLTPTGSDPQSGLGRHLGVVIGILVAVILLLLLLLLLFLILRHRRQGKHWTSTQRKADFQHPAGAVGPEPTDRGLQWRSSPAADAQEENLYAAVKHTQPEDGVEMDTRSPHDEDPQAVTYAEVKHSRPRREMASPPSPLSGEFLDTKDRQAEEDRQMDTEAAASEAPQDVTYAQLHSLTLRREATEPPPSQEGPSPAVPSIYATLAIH
Description: as §1

[2] = target: T1, human LILRB2 expressed on cells; test: flow cytometry, LILRB2 CHOs
human LILRB3 = target: T9, human LILRB3 (human, UniProt O75022 24-631); test: flow cytometry, LILRB3 CHOs
T9 construct: Over-expressed on CHO-s cells; also called hLILRB3
Description: as §1

human LILRB4 = target: T10, human LILRB4 (human, UniProt Q8NHJ6 22-448); test: flow cytometry, LILRB4 CHOs
T10 construct: Over-expressed on CHO-s cells; also called hLILRB4
Description: as §1

human LILRB5 = target: T11, human LILRB5 (human, UniProt O75023 24-590); test: flow cytometry, LILRB5 CHOs
T11 construct: Over-expressed on CHO-s cells; also called hLILRB5
T11 sequence (O75023 24-590 P542R limits assumed): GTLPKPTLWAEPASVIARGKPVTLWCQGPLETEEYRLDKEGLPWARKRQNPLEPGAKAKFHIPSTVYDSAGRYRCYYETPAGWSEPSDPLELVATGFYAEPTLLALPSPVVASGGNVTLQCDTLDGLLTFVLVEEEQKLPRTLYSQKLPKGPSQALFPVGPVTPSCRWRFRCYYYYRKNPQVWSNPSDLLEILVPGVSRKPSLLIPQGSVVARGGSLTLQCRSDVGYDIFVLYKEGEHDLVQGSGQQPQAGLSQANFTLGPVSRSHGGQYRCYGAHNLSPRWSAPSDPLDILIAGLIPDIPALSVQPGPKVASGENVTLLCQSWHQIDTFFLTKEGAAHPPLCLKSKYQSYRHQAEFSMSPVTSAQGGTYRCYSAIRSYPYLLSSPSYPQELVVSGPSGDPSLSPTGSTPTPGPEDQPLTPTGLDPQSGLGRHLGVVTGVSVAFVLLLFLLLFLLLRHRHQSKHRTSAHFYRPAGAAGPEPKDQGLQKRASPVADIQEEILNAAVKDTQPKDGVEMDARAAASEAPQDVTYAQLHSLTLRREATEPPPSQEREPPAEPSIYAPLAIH
Description: as §1

[3] = target: T1, human LILRB2 expressed on cells; test: flow cytometry, binding to hLILRB2 CHOs
[4] = target: T1, human LILRB2 expressed on cells; test: HLA-G:LILRB2 blocking; HLA-G tetramer on primary human macrophages, flow cytometry
Description: (§2) The potency of select humanized variants in blocking the interaction of HLA-G and HLA-A2 with primary human macrophage-expressed hLILRB2 were assessed. Primary human monocytes were differentiated into macrophages in the presence of M-CSF. After seven days of differentiation, 1×10⁵ HMDMs were plated in 96-well round-bottom tissue culture-treated plate and washed twice with 1×DPBS (Gibco) and then incubated with 50 μL primary antibody (anti-LILRB2 mAbs or control) prepared in FACS buffer (1×DPBS containing 2% HI-FBS (Sigma)+0.05% Sodium Azide). After incubation with mAbs for 30 minutes at 4° C., cells were washed twice in FACS buffer and then resuspended in 50 μL of FACS buffer containing 5 μg/mL APC-conjugated HLA-G or HLA-A2 tetramer (Fred Hutch). Cells were incubated protected from light for 30-60 minutes at 4° C. After incubation with tetramer, cells were washed in FACS buffer and re-suspended in fix buffer (1.5% paraformaldehyde diluted in 1×DPBS). Samples were analyzed using the Celesta flow cytometer analyzer (BD Biosciences).

[5] = target: T1, human LILRB2 expressed on cells; test: HLA-A2:LILRB2 blocking; HLA-A2 tetramer on primary human macrophages, flow cytometry
Description: as §2

human LILRB2-His = human LILRB2-His (human, UniProt Q8N423 22-460); test: SPR, Sierra Sensors MASS-2; antibody captured on anti-human Fc, LILRB2-His 65 to 0.27 nM, 1:1 Langmuir fit
Chain of human LILRB2-His (Q8N423 other isoform, or with tags, fused parts or gaps): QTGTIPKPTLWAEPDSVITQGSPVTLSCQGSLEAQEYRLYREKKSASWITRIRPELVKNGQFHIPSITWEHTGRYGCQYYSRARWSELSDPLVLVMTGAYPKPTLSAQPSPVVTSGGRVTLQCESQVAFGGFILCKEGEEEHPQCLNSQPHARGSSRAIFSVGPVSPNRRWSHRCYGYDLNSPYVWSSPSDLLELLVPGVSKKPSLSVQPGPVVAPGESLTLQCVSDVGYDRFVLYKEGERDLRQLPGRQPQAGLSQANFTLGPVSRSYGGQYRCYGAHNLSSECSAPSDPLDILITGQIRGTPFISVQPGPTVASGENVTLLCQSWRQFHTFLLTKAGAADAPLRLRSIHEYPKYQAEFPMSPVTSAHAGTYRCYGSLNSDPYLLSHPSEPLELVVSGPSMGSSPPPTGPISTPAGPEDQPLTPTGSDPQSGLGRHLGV
Description: Using a Mass-2 (Sierra Sensors) high capacity amine chip preimmobilized with AffiniPure Goat Anti-Human IgG, Fcγ Fragment Specific antibody, humanized antibodies were captured on the anti-human surface and then binding to human LILRB2-His was measured by flowing six different concentrations from 65 to 0.27 nM of the analyte over the antibody surface. The anti-LILRB2 surface was removed (10 mM Glycine, pH 2.0) and recaptured between all concentrations or buffer only cycles. The data was analyzed using the Sierra Analyzer software (version 3.1.14). All curves were double subtracted and fit to a 1:1 Langmuir Fit.

T1 sequence (Q8N423 other isoform, or with tags, fused parts or gaps limits assumed): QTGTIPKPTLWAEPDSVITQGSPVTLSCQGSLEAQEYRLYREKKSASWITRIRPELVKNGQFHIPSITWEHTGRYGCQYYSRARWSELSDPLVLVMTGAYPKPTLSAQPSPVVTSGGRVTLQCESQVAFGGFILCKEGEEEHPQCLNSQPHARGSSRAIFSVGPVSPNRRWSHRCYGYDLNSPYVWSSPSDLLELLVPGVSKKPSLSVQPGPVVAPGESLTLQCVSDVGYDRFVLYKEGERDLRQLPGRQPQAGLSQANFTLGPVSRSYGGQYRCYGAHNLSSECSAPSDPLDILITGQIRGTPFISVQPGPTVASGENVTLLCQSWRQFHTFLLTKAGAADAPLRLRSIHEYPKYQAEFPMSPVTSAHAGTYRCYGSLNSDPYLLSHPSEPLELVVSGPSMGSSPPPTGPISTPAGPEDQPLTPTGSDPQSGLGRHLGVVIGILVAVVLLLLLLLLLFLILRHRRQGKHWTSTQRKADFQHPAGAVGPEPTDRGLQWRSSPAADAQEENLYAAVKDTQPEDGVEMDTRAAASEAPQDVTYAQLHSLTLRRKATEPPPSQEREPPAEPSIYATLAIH
T2 sequence (O75019 17-489 limits assumed): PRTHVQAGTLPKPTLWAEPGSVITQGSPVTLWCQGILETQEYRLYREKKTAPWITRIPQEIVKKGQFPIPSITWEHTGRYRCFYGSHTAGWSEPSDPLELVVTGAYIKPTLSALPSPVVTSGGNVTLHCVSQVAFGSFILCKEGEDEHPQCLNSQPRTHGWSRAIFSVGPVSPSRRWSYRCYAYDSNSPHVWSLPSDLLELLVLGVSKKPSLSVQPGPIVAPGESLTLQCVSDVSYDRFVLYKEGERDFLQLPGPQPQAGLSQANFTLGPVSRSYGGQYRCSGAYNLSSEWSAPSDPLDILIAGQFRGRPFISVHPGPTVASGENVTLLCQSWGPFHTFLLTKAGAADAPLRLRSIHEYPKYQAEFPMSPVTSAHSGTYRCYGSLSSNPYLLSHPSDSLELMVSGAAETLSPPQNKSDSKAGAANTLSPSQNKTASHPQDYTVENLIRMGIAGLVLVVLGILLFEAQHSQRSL

B1: J-19.h2 (antibody, human IgG4 S228P, kappa, V domains shown)
VH: QITLKESGPTLVKPTQTLTLTCTFSGFSLNTYAMGVSWIRQPPGKALEWLASIWWNGNKYNNPSLKSRLTVTKDTSKNQVVLTMTNMDPVDTATYYCAHSRIIRFTDYVMDAWGQGTLVTVSS
VL: DIVMTQSPSSLSASVGDTVTITCRASEDIYNDLAWYQQKPGKAPQLLLYNANSLHTGVPSRFSGSGSGTDYTLTISTLQPEDFATYYCQQYYDYPLTFGPGTKVHIKR
notes: Humanized, human IgG4 backbone
Question: For B1, which “EC50, IL-6 production by LPS-stimulated HMDMs” value [1] is on record?
Answer: Its value is 186 pM.

Question: And the “EC50, TNFa production by LPS-stimulated HMDMs” value [1]?
Answer: Its value is 120 pM.

Question: And the “IC50, CCL2 production by LPS-stimulated HMDMs” value [1]?
Answer: The value was 11 pM.

Question: What about the “IC50, IL-10 production by LPS-stimulated HMDMs” value [1] of the same binder?
Answer: The value was 702 pM.

Question: And the “binding (fold over iso)” value (human LILRA1)?
Answer: The value was 0.89 fold over iso.

Question: Does B1 bind (human LILRA1)?
Answer: Result: no binding

Question: What about the “binding (fold over iso)” value (human LILRA2) of the same binder?
Answer: Its value is 0.66 fold over iso.

Question: Does B1 bind (human LILRA2)?
Answer: Result: no binding

Question: What about the “binding (fold over iso)” value (human LILRA3) of the same binder?
Answer: Its value is 0.83 fold over iso.

Question: Does B1 bind (human LILRA3)?
Answer: Result: no binding

Question: What about the “binding (fold over iso)” value (human LILRA4) of the same binder?
Answer: The value was 0.84 fold over iso.

Question: Does B1 bind (human LILRA4)?
Answer: Result: no binding

Question: What about the “binding (fold over iso)” value (human LILRA5) of the same binder?
Answer: The value was 0.86 fold over iso.

Question: Does B1 bind (human LILRA5)?
Answer: Result: no binding

Question: What about the “binding (fold over iso)” value (human LILRA6) of the same binder?
Answer: The value was 0.74 fold over iso.

Question: Does B1 bind (human LILRA6)?
Answer: Result: no binding

Question: What about the “binding (fold over iso)” value (human LILRB1) of the same binder?
Answer: The value was 0.73 fold over iso.

Question: Does B1 bind (human LILRB1)?
Answer: Result: no binding

Question: What about the “binding (fold over iso)” value [2] of the same binder?
Answer: The value was 74.5 fold over iso.

Question: What about the “binding (fold over iso)” value (human LILRB3) of the same binder?
Answer: Its value is 0.81 fold over iso.

Question: Does B1 bind (human LILRB3)?
Answer: Result: no binding

Question: And the “binding (fold over iso)” value (human LILRB4)?
Answer: Its value is 0.9 fold over iso.

Question: Does B1 bind (human LILRB4)?
Answer: Result: no binding

Question: And the “binding (fold over iso)” value (human LILRB5)?
Answer: The value was 0.76 fold over iso.

Question: Does B1 bind (human LILRB5)?
Answer: Result: no binding

Question: And the EC50 [3]?
Answer: Its EC50 is 447 pM.

Question: And the EC50 [4]?
Answer: The EC50 was 122 pM.

Question: What about the EC50 [5] of the same binder?
Answer: Its EC50 is 87 pM.

Question: And the Kd (human LILRB2-His)?
Answer: Its Kd is 4580 pM.

Question: What about the koff (human LILRB2-His) of the same binder?
Answer: Its koff is 0.00238 s⁻¹.

Question: What about the kon (human LILRB2-His) of the same binder?
Answer: The kon was 521000 M⁻¹ s⁻¹.
